According to patent publication US20240182536A1 (MURAL ONCOLOGY, published 2024):

Key:
[1] = target: T1, human IL-18 receptor alpha (IL-18Rα) (human, UniProt Q13478 19-329, limits assumed); experiment: Octet BLI
T1 construct: also called hu IL-18Ra; IL-18R alpha
T1 sequence (looked up): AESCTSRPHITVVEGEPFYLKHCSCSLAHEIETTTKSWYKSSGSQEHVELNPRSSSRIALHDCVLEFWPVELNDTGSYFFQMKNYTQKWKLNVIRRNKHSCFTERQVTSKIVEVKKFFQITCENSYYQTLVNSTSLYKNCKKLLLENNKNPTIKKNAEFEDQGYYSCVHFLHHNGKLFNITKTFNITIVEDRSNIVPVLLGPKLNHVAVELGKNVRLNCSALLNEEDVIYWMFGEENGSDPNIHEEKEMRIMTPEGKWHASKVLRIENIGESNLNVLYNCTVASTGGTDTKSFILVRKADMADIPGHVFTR
Method: (§1) Octet 96red instrument was used to determine affinities of IL18 proteins to BP or receptors. 5-10 ug/ml analyte proteins were used for loading on Sartorius tips (AHC or SA). […] 120-180 s loading, 200 s association and 800 s dissociation were used for kinetics. 3-7 data points were used to calculate affinities.

[2] = target: T2, human IL-18R alpha/beta pair (IL-18Rab) (human, UniProt Q13478 19-329; O95256 20-356); experiment: Octet BLI
T2 construct: also called hu IL-18Rab
T2 sequence (looked up) 1: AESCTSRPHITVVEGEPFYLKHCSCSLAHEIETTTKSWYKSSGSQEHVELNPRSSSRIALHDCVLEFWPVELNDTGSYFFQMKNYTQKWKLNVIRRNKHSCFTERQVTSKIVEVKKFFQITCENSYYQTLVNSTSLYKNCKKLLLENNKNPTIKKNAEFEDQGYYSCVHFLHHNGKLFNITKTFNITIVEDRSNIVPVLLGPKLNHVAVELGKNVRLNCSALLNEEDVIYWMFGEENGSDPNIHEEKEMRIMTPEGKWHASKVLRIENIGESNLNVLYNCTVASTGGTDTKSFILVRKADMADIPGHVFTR
T2 sequence (looked up) 2: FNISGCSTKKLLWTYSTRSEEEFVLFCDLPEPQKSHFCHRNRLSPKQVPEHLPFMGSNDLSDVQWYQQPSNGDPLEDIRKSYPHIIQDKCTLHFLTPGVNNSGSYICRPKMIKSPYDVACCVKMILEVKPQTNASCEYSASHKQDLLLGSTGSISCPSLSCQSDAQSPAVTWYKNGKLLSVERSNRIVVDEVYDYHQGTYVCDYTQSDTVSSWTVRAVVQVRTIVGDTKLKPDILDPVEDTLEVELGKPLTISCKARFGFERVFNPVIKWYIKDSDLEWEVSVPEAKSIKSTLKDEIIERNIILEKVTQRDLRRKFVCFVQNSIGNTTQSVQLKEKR
Method: as §1

[3] = target: T3, human IL-18 binding protein (IL-18BP) (human, UniProt O95998 31-194); experiment: Octet BLI
T3 construct: also called hu IL-18BP; hIL18BP
T3 sequence (looked up): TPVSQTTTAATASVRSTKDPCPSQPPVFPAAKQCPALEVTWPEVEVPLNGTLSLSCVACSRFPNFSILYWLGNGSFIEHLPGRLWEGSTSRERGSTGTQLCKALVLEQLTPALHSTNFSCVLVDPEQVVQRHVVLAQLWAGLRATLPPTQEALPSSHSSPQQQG
Method: as §1

[4] = target: T3, human IL-18 binding protein (IL-18BP); experiment: cell-based or functional assay
[5] = target: T4, IL-18 receptors on HEK-Blue IL-18 reporter cells (InvivoGen) (UniProt Q13478 19-541; O95256 20-599); experiment: cell-based or functional assay
T4 sequence (looked up) 1: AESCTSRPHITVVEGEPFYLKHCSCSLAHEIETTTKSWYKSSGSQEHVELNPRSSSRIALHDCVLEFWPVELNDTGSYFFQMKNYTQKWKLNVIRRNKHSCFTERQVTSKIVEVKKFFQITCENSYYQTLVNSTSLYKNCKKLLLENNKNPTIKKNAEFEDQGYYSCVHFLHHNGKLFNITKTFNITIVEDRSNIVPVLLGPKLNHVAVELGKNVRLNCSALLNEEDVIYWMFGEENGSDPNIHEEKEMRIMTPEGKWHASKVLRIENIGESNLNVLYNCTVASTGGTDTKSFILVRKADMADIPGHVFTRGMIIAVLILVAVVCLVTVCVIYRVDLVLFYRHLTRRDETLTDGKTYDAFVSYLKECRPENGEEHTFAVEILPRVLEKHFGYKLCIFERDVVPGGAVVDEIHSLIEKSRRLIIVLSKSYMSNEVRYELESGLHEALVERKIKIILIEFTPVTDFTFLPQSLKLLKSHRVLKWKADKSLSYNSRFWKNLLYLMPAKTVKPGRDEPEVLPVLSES
T4 sequence (looked up) 2: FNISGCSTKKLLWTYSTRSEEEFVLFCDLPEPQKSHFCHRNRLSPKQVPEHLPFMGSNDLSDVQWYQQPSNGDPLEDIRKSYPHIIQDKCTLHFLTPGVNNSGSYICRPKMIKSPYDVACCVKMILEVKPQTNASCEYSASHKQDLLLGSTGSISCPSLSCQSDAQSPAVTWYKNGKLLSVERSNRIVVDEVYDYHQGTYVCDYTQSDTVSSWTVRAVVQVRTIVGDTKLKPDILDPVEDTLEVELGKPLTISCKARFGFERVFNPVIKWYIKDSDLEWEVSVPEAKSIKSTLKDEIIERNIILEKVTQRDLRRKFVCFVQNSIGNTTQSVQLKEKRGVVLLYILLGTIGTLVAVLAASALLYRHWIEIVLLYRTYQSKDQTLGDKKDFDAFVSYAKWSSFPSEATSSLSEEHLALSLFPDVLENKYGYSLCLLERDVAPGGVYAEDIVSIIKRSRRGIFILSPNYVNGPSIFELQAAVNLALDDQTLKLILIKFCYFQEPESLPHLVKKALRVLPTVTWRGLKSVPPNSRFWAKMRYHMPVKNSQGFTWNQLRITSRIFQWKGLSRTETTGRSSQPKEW

[6] = target: T3, human IL-18 binding protein (IL-18BP); experiment: cell-based or functional assay; remark: listed apart in the source
[7] = target: T4, IL-18 receptors on HEK-Blue IL-18 …; experiment: cell-based or functional assay; remark: listed apart in the source
[8] = target: T5, IL-18 receptor (IL-18Rα and IL-18Rβ) (UniProt Q13478 19-541; O95256 20-599, limits assumed); experiment: cell-based or functional assay
T5 sequence (looked up) 1: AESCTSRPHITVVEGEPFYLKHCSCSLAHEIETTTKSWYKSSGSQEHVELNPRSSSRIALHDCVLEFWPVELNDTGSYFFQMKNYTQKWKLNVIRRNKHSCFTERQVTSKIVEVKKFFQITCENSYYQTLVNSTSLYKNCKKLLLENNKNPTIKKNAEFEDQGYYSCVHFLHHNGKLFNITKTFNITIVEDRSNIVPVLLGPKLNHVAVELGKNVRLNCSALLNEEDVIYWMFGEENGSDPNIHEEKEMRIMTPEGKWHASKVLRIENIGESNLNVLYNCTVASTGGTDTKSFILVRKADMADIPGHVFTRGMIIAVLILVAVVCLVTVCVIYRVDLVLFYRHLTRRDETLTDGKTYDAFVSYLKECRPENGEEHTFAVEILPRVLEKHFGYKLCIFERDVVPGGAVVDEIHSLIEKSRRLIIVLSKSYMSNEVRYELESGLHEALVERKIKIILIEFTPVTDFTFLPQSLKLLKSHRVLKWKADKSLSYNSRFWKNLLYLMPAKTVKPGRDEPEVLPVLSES
T5 sequence (looked up) 2: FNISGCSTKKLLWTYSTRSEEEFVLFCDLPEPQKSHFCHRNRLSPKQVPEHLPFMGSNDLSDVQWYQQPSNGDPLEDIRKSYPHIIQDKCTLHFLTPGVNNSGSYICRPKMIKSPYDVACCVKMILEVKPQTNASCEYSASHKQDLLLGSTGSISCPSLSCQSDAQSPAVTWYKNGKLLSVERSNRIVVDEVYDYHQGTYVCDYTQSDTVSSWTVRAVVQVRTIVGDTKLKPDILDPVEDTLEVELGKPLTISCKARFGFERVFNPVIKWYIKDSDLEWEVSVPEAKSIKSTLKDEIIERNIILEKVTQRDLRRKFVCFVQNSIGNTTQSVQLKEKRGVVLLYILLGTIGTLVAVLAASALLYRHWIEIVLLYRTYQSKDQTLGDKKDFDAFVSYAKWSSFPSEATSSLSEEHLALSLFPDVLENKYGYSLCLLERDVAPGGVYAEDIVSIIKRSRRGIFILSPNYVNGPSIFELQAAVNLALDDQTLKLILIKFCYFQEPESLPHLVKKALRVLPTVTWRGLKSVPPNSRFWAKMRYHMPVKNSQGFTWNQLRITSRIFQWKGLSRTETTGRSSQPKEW

[9] = target: T3, human IL-18 binding protein (IL-18BP); experiment: cell-based or functional assay; remark: listed apart in the source
[10] = target: T6, IL-18 receptors on HEK-Blue IL-18 reporter cells (UniProt Q13478 19-541; O95256 20-599, limits assumed); experiment: cell-based or functional assay
T6 sequence (looked up) 1: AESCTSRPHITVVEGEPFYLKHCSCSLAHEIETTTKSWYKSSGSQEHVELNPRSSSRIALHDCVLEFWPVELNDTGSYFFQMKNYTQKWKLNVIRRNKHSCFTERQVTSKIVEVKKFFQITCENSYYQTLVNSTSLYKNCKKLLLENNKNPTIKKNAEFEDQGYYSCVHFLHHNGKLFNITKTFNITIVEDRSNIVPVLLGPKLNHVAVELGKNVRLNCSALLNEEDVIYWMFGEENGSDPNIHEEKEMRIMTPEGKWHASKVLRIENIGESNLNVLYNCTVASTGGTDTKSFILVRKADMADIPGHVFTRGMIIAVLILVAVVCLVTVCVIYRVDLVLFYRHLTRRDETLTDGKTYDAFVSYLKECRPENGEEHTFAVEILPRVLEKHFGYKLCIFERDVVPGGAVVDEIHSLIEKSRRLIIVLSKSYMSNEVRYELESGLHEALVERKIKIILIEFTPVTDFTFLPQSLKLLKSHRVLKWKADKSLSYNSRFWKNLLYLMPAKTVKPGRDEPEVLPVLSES
T6 sequence (looked up) 2: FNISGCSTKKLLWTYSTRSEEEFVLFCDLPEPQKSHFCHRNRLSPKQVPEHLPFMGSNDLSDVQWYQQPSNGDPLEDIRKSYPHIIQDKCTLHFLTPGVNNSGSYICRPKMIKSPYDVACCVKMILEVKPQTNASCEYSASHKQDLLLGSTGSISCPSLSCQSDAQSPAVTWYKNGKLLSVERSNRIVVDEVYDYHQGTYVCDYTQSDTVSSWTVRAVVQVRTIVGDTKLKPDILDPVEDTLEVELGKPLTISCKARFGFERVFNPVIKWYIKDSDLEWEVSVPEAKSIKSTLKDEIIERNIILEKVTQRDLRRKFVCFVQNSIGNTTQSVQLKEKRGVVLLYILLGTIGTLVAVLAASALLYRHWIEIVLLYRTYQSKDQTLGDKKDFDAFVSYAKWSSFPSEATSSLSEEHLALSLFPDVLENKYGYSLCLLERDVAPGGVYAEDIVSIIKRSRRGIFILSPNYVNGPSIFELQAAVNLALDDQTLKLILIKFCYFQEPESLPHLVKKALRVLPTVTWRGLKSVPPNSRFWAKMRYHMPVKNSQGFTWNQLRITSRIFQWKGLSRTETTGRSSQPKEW

[11] = target: T7, human IL-18 binding protein (human, UniProt O95998 31-194); experiment: cell-based or functional assay
T7 sequence (looked up): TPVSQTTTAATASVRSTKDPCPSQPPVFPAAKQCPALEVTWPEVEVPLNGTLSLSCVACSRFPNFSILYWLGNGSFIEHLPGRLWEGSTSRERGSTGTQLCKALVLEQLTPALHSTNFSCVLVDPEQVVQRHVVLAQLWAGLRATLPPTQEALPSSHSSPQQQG

B1: IL-18 variant G3V, M60K, D157E (ligand)
chain: YFVKLESKLSVIRNLNDQVLFIDQGNRPLFEDMTDSDMRDNAPRTIFIISMYKDSQPRGKAVTISVKSEKISTLSSENKIISFKEMNPPDNIKDTKSDIIFFQRSVPGHDNKMQFESSSYEGYFLASEKERDLFKLILKKEDELGDRSIMFTVQNEE
Kd [1]: 43 nM | Kd [2]: 0.13 nM | Kd [3]: 87 nM | Fold Change (BP/NO BP), 50 nM BP [4]: 1.74 fold | Fold Change (BP/NO BP), 300 nM BP [4]: 3.74 fold | HEK-Blue EC50 pM, +50 nM BP [4]: 0.14 pM | HEK-blue EC50 (pM) + 300 nM BP [4]: 0.6 pM | HEK-Blue EC50 pM, NO BP (50 nM BP run) [5]: 0.08 pM | HEK-Blue EC50 pM, NO BP (300 nM BP run) [5]: 0.16 pM | HEK-Blue Activity Assay Ec50 (pM), +300 nM hu IL-18BP [6]: 0.6 pM | HEK-Blue Activity Assay Ec50 (pM), -hu IL-18BP [7]: 0.16 pM | EC50 pM, IFN gamma expression in PBMCs, no BP [8]: 6.61 pM | EC50 pM, IFN gamma expression in PBMCs, + 300 nM BP [9]: 13 pM

B2: G3T/M60K-monospecific KiH (Fc fusion)
chain: YFTKLESKLSVIRNLNDQVLFIDQGNRPLFEDMTDSDMRDNAPRTIFIISMYKDSQPRGKAVTISVKSEKISTLSSENKIISFKEMNPPDNIKDTKSDIIFFQRSVPGHDNKMQFESSSYEGYFLASEKERDLFKLILKKEDELGDRSIMFTVQNED
HEK-blue EC50 (pM) - IL-18BP [10]: 0.27 pM | HEK-blue EC50 (pM) + 300 nM IL-18BP [11]: 2.64 pM

B3: G3T/E6K/K53A-monospecific KiH (Fc fusion)
chain: YFTKLKSKLSVIRNLNDQVLFIDQGNRPLFEDMTDSDMRDNAPRTIFIISMYADSQPRGMAVTISVKSEKISTLSSENKIISFKEMNPPDNIKDTKSDIIFFQRSVPGHDNKMQFESSSYEGYFLASEKERDLFKLILKKEDELGDRSIMFTVQNED
HEK-blue EC50 (pM) - IL-18BP [10]: 0.04 pM | HEK-blue EC50 (pM) + 300 nM IL-18BP [11]: 1.16 pM

B4: G3V/M60K-monospecific KiH (Fc fusion)
chain: YFVKLESKLSVIRNLNDQVLFIDQGNRPLFEDMTDSDMRDNAPRTIFIISMYKDSQPRGKAVTISVKSEKISTLSSENKIISFKEMNPPDNIKDTKSDIIFFQRSVPGHDNKMQFESSSYEGYFLASEKERDLFKLILKKEDELGDRSIMFTVQNED
HEK-blue EC50 (pM) - IL-18BP [10]: 0.06 pM | HEK-blue EC50 (pM) + 300 nM IL-18BP [11]: 2.01 pM
